Experimental data as given in doi:10.1101/528240 (bioRxiv, 2019).

B1: GII.4 NSW-2012 norovirus major capsid protein VP1, assembled as virus-like particles (VLPs) (natural protein, human norovirus GII.4 (NSW-2012), UniProt K4LM89 1-540, looked up)
chain: MKMASSDANPSDGSAANLVPEVNNEVMALEPVVGAAIAAPVAGQQNVIDPWIRNNFVQAPGGEFTVSPRNAPGEILWSAPLGPDLNPYLSHLARMYNGYAGGFEVQVILAGNAFTAGKVIFAAVPPNFPTEGLSPSQVTMFPHIVVDVRQLEPVLIPLPDVRNNFYHYNQSNDPTIKLIAMLYTPLRANNAGDDVFTVSCRVLTRPSPDFDFIFLVPPTVESRTKPFSVPVLTVEEMTNSRFPIPLEKLFTGPSSAFVVQPQNGRCTTDGVLLGTTQLSPVNICTFRGDVTHITGSRNYTMNLASQNWNDYDPTEEIPAPLGTPDFVGKIQGVLTQTTRTDGSTRGHKATVYTGSADFAPKLGRVQFETDTDRDFEANQNTKFTPVGVIQDGGTTHRNEPQQWVLPSYSGRNTHNVHLAPAVAPTFPGEQLLFFRSTMPGCSGYPNMDLDCLLPQEWVQYFYQEAAPAQSDVALLRFVNPDTGRVLFECKLHKSGYVTVAHTGQHDLVIPPNGYFRFDSWVNQFYTLAPMGNGTGRRRAV

Columns and labels:
[1] = target: GII.4 CHDC-1974 norovirus major capsid protein VP1, assembled as virus-like particles (VLPs) (human norovirus GII.4 (CHDC-1974)); assay: cryo-EM structure
cryo-EM structure = target: the molecule itself; assay: cryo-EM structure

| Molecule | stoichiometry N [1] | stoichiometry N (cryo-EM structure) |
| --- | --- | --- |
| GII.4 CHDC-1974 norovirus major capsid protein VP1, assembled as virus-like particles (VLPs) (natural protein) | 240 | – |
| B1 | – | 240 |
